Usually stoichiometry N stands for the number of molecules, sites or subunits per partner or assembly. In general, Km refers to the substrate concentration at which the rate is half of its maximum. In general, kcat refers to the number of substrate molecules converted per active site and unit of time at saturation. As a reminder, the kcat/Km is the turnover number divided by the Michaelis constant.

Data set [1] deals with K194A mutant of L. plantarum CGL (cystathionine γ-lyase from Lactobacillus plantarum SN35N) (Lactobacillus plantarum SN35N). As to the kind of experiment: crystal structure; K194A CGL at 9 mg/mL with PLP and 2 mM cystathionine or 2 mM L-serine; sitting-drop vapor diffusion, precipitant 0.4 M KH2PO4 and 0.4 M Na2HPO4; tetramer seen in the crystal.
The target of data set [2] is T1, L. plantarum CGL (Lactiplantibacillus plantarum, UniProt F9UT53, K194A).
T1 construct: gene cblB; C-terminal His6 tag (kept), pET-21a(+), E. coli BL21(DE3); homotetramer, active site between two subunits; PCR primers (translated) give N-terminus MRTLTMKFETQ and C-terminus FASIQAD before LE-His6
T1 sequence (F9UT53 entry or part of it K194A): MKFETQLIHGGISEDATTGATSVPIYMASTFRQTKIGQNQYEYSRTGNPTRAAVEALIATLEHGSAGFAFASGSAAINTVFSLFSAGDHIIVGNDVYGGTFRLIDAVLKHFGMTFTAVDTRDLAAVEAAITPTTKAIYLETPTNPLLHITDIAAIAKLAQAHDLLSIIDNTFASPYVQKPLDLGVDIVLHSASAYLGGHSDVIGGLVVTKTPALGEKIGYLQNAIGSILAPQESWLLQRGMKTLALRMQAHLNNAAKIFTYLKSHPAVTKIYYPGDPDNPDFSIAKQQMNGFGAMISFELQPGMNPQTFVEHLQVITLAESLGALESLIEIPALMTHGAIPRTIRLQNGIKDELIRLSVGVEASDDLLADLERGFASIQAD
As to the kind of experiment: X-ray crystal structure, […] Å. Type of data set: binding. To be noted: covalent; external aldimine with PLP, substrate analogue, phosphate at distal carboxyl site.

For data set [3], the target named is T1, L. plantarum CGL. As to the kind of experiment: X-ray crystal structure, […] Å. Type of data set: binding. Particulars: covalent; external aldimine with PLP at active site, inactive mutant.
Substrate in data set [4]: N[C@@H](CS)C(=O)O
As to the kind of experiment: H2S release as PbS, A390. Type of data set: biochemical, Lactiplantibacillus plantarum. To be noted: L-cysteine beta-lyase, 100 mM HEPES-KOH pH 7.5, 5 mM TCEP, 0.4 mM lead(II) nitrate, 37 °C. The source says:
(§1) H2S release as PbS, A390 on L. plantarum CGL

Substrate in data set [5]: N[C@@H](CCS)C(=O)O
As to the kind of experiment: H2S release as PbS, A390. To be noted: L-homocysteine gamma-lyase. Type of data set: biochemical, Lactiplantibacillus plantarum.
Source text: as §1

Substrate in data set [6]: N[C@@H](CCSC[C@H](N)C(=O)O)C(=O)O
As to the kind of experiment: DTNB thiol release, A412. Type of data set: biochemical, Lactiplantibacillus plantarum. Particulars: cystathionase, 100 mM HEPES-KOH pH 7.5, 0.5 mM DTNB, 37 °C. The source says: DTNB thiol release, A412 on L. plantarum CGL

Substrate in data set [7]: N[C@@H](CSSC[C@H](N)C(=O)O)C(=O)O
As to the kind of experiment: lactate dehydrogenase-coupled pyruvate formation, NADH A340. Type of data set: biochemical, Lactiplantibacillus plantarum. Particulars: L-cystine beta-lyase, 100 mM HEPES-KOH pH 7.5, 0.2 mM NADH, 37 °C. The source says:
lactate dehydrogenase-coupled pyruvate formation, NADH A340 on L. plantarum CGL

Where [8] appears, read: 100 mM HEPES-KOH pH 7.5, 5 mM TCEP, 0.4 mM lead(II) nitrate, 37 °C.
Where [9] appears, read: buffer same, fitted with substrate inhibition, called inaccurate by authors.

Molecule “K194A mutant of L. plantarum CGL (cystathionine γ-lyase from Lactobacillus plantarum SN35N) (enzyme)” gave a stoichiometry N in data set [1] of 4.

Consider `N[C@@H](CO)C(=O)O` [L-serine], for which the “X-ray crystal structure, 2.75 Å” value in data set [2] is “L-serine was also found as part of the external aldimine formed with PLP”.

On to `N[C@@H](CCSC[C@H](N)C(=O)O)C(=O)O` [cystathionine], for which the “X-ray crystal structure, 3.10 Å” value in data set [3] was “Cystathionine was found in the crystal structure as a part of the external aldimine”.

B1: L. plantarum CGL (Lactiplantibacillus plantarum WCFS1) (protein)
chain: MKFETQLIHGGISEDATTGATSVPIYMASTFRQTKIGQNQYEYSRTGNPTRAAVEALIATLEHGSAGFAFASGSAAINTVFSLFSAGDHIIVGNDVYGGTFRLIDAVLKHFGMTFTAVDTRDLAAVEAAITPTTKAIYLETPTNPLLHITDIAAIAKLAQAHDLLSIIDNTFASPYVQKPLDLGVDIVLHSASKYLGGHSDVIGGLVVTKTPALGEKIGYLQNAIGSILAPQESWLLQRGMKTLALRMQAHLNNAAKIFTYLKSHPAVTKIYYPGDPDNPDFSIAKQQMNGFGAMISFELQPGMNPQTFVEHLQVITLAESLGALESLIEIPALMTHGAIPRTIRLQNGIKDELIRLSVGVEASDDLLADLERGFASIQAD
notes: C-terminal His6 tag (kept), pET-21a(+), E. coli BL21(DE3); homotetramer, active site between two subunits; PCR primers (translated) give N-terminus … and C-terminus FASIQAD before LE-His6
Regarding B1, the Michaelis-Menten constant (Km) in data set [4] was found to be 35000 ± 6000 µM; in data set [5] (setting [8]) it was 6300 ± 700 µM; in data set [6] it was 450 ± 10 µM; in data set [7], 120 ± 10 µM. Further, the kcat in data set [4] worked out at 0.3 ± 0.03 s⁻¹; in data set [5] (setting [8]), 0.081 ± 0.004 s⁻¹; in data set [6] it was 0.49 ± 0.01 s⁻¹; in data set [7] it was 0.12 ± 0.01 s⁻¹. In addition, the kcat/Km in data set [4] came to 8.6 ± 1.8 M⁻¹ s⁻¹; in data set [5] (setting [8]) it was 13 ± 1 M⁻¹ s⁻¹; in data set [6], 1100 ± 100 M⁻¹ s⁻¹; in data set [7], 1000 ± 100 M⁻¹ s⁻¹.

B2: L. plantarum CGL (Lactiplantibacillus plantarum WCFS1; Y97F) (protein)
chain: MKFETQLIHGGISEDATTGATSVPIYMASTFRQTKIGQNQYEYSRTGNPTRAAVEALIATLEHGSAGFAFASGSAAINTVFSLFSAGDHIIVGNDVFGGTFRLIDAVLKHFGMTFTAVDTRDLAAVEAAITPTTKAIYLETPTNPLLHITDIAAIAKLAQAHDLLSIIDNTFASPYVQKPLDLGVDIVLHSASKYLGGHSDVIGGLVVTKTPALGEKIGYLQNAIGSILAPQESWLLQRGMKTLALRMQAHLNNAAKIFTYLKSHPAVTKIYYPGDPDNPDFSIAKQQMNGFGAMISFELQPGMNPQTFVEHLQVITLAESLGALESLIEIPALMTHGAIPRTIRLQNGIKDELIRLSVGVEASDDLLADLERGFASIQAD
notes: as for B1
Regarding B2, the Michaelis constant (Km) in data set [4] (pH 7.5) worked out at 160 ± 30 µM; in data set [5] (setting [9]), 1200 ± 800 µM; in data set [6], 770 ± 210 µM; in data set [7], 56 ± 9 µM. In addition, the kcat in data set [4] (pH 7.5) was determined as 0.015 ± 0.001 s⁻¹; in data set [5] (setting [9]) it was 0.042 ± 0.02 s⁻¹; in data set [6] it was 0.0056 ± 0.0007 s⁻¹; in data set [7], 0.1 ± 0.01 s⁻¹. Also, the kcat/Km in data set [4] (pH 7.5) stood at 96 ± 18 M⁻¹ s⁻¹; in data set [5] (setting [9]), 35 ± 27 M⁻¹ s⁻¹; in data set [6], 7.2 ± 2.2 M⁻¹ s⁻¹; in data set [7] it was 1800 ± 300 M⁻¹ s⁻¹.

These data come from article PMC7483736, “Catalytic specificity of the Lactobacillus plantarum cystathionine γ-lyase presumed by the crystallographic analysis” (Scientific Reports, 2020).
